Experimental data taken from patent US20120253013A1.

Molecular target: HGF receptor c-Met on uninfected HUVECs (human) (UniProt P08581)
Experiment: cell-based or functional assay

Chain of UniProt P08581 (P08581 25-1390): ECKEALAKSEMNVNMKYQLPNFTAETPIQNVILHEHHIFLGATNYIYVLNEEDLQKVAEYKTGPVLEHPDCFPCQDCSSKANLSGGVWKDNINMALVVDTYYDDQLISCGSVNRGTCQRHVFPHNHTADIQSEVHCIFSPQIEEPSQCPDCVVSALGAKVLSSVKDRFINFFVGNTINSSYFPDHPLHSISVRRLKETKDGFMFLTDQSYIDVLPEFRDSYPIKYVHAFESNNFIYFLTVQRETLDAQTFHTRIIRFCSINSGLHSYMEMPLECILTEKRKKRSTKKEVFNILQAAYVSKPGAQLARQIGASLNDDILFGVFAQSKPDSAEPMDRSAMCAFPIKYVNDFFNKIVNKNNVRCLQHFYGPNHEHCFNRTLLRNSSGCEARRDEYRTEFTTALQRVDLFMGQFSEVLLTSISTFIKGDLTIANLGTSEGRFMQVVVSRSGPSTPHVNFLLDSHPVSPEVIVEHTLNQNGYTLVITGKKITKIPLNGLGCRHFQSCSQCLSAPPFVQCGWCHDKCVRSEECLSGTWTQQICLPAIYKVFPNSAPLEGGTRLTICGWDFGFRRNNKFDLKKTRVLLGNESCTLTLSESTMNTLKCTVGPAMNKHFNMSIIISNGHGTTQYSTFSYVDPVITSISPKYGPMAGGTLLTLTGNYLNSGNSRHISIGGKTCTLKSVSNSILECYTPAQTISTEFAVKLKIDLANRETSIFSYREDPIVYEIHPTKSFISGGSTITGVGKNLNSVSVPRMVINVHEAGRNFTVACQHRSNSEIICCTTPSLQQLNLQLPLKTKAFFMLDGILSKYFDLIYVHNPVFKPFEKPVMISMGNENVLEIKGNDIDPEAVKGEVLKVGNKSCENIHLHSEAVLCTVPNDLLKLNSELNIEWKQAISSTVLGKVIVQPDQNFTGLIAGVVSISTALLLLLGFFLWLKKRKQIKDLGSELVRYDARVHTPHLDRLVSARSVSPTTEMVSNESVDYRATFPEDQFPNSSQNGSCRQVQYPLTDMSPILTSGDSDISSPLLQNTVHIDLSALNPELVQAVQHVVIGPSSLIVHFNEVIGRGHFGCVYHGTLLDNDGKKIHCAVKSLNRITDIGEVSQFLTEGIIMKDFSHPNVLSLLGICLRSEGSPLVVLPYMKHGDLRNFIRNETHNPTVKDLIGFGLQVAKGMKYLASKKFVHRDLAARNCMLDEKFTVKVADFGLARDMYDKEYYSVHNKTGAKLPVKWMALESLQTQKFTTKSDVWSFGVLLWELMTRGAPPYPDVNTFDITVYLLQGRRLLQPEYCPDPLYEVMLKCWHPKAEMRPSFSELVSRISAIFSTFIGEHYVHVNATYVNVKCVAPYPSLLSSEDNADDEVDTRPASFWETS

c-Met receptor phosphorylation on tyrosine 1234/1235 (PathScan Phospho-Met Sandwich ELISA), fold increase against Ad-lacZ: 1.8 fold
Substance: hepatocyte growth factor (HGF) in conditioned medium from Ad-Egr3 infected HUVECs (from UniProt P14210 32-728) (ligand)
